Results: publication doi:10.1101/2025.03.04.641353
Like-named read-outs stand apart in the source and are kept apart here.

B1: Ni_apt (ssDNA)
DNA: AAAAAAAAAAGCAGCACAGAGGTCAGATGGTATCGAGCGCAGGGCCGCCTTTGTT

Assays:
[1] = target: T1, Bovine serum albumin (BSA) (Bos taurus, UniProt P02769 25-607); assay: SYBR Green I fluorescence titration
[2] = target: T1, Bovine serum albumin (BSA); assay: SYBR Green I fluorescence titration; remark: listed apart in the source

T1 sequence (P02769 25-607): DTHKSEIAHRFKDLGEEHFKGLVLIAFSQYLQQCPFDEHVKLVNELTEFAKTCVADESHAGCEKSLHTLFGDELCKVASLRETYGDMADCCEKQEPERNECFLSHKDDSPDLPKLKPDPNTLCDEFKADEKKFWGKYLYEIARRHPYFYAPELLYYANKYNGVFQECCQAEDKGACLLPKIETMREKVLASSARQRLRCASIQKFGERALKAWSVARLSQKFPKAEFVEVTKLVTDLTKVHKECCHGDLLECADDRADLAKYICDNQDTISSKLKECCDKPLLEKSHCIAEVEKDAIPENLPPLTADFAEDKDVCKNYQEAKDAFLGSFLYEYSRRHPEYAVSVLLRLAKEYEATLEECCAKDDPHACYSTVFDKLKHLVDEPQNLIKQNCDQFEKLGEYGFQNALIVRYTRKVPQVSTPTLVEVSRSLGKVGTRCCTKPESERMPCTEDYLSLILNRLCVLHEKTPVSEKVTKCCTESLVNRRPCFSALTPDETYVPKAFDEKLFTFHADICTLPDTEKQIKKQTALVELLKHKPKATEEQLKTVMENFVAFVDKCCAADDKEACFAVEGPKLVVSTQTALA

| Binder | Kd [1] [nM] | Kd [2] [nM] |
| --- | --- | --- |
| B1 | 120 | – |
| AGCAGCACAGAGGTCAGATGGTATCGAGCGCAGGGCCGCCTTTGTT (ssDNA) [R_apt] | – | 20 |
